{"source": "paper PMC6277173", "binders": {"B1": {"name": "human anti HIV-1 monoclonal antibody 2F5 IgG (antibody, V domains shown)", "VH": "RITLKESGPPLVKPTQTLTLTCSFSGFSLSDFGVGVGWIRQPPGKALEWLAIIYSDDDKRYSPSLNTRLTITKDTSKNQVVLVMTRVSPVDTATYFCAHRRGPTTLFGVPIARGPVNAMDVWGQGITVTISS", "VL": "ALQLTQSPSSLSASVGDRITITCRASQGVTSALAWYRQKPGSPPQLLIYDASSLESGVPSRFSGSGSGTEFTLTISTLRPEDFATYYCQQLHFYPHTFGGGTRVDVR"}, "B2": {"name": "BM07/vL03 (su3H6 with T94hR, F46lL, Q49lS) (antibody, V domains shown)", "VH": "EVQLVQSGAEVKKPGATVKISCKVSGYTFTDYFMHWVQQAPGKGLEWMGYINCYTGATNYSQKFKGRVTITADTSTDTAYMELSSLRSEDTAVYYCARTSIGYGSSPPFPYWGQGTLVTVS", "VL": "ETTLTQSPAFMSATPGDKVNISCITSTDIDDDMNWYQQKPGEAAILIISDGNTLRPGIPPRFSGSGYGTDFTLTINNIESEDAAYYFCLQSDNLPYTFGQGTKLEIK"}, "B3": {"name": "mouse antibody Ab2/3H6 (wt3H6) (antibody, V domains shown)", "VH": "GVQLQQSGPELVKTGASVKISCKASGYSFTDYFMHWVKQSHGKSLDWIGYINCYTGATNYSQKFKGKATFTVDTSSNTAYMQFNSLTSEDSAVYYCARTSIGYGSSPPFPYWGQGTLVTVS", "VL": "ETTVTQSPASLSMSIGEKVTIRCITSTDIDDDMNWYQQKPGEPPRLLISDGNTLRPGVPSRFSSSGYGTDFVFTIENMLSEDVADYYCLQSDNLPYTFGGGTNLEIK"}, "B4": {"name": "BM07 (su3H6 with T94hR) (antibody, V domains shown)", "VH": "B2 VH", "VL": "B2 VL with L46F, S49Q"}, "B5": {"name": "BM09 (su3H6 with T94hR, Y27hA) (antibody, V domains shown)", "VH": "B2 VH with Y27A", "VL": "B2 VL with L46F, S49Q"}, "B6": {"name": "BM07/vL01 (su3H6 with T94hR, F46lL) (antibody, V domains shown)", "VH": "B2 VH", "VL": "B2 VL with S49Q"}, "B7": {"name": "BM07/vL02 (su3H6 with T94hR, Q49lS) (antibody, V domains shown)", "VH": "B2 VH", "VL": "B2 VL with L46F"}}, "key": {"BM07 (su3H6 with T94hR)": {"target": "BM07 (su3H6 with T94hR)", "experiment": "BLI; protein A bio-assay (Octet QKe): Ab2/3H6 variants captured from concentrated culture supernatants on protein A biosensors, blocked with an unspecific scFv-Fc antibody, association and dissociation of 2F5 IgG measured; kinetics buffer; KD averaged"}, "[1]": {"target": "BM07/vL01 (su3H6 with T94hR, F46lL)", "experiment": "BLI; protein A bio-assay (Octet QKe): Ab2/3H6 variants captured from concentrated culture supernatants on protein A biosensors, blocked with an unspecific scFv-Fc antibody, association and dissociation of 2F5 IgG measured; kinetics buffer; KD averaged"}, "[2]": {"target": "BM07/vL02 (su3H6 with T94hR, Q49lS)", "experiment": "BLI; protein A bio-assay (Octet QKe): Ab2/3H6 variants captured from concentrated culture supernatants on protein A biosensors, blocked with an unspecific scFv-Fc antibody, association and dissociation of 2F5 IgG measured; kinetics buffer; KD averaged"}, "[3]": {"target": "BM07/vL03 (su3H6 with T94hR, F46lL, Q49lS)", "experiment": "BLI; protein A bio-assay (Octet QKe): Ab2/3H6 variants captured from concentrated culture supernatants on protein A biosensors, blocked with an unspecific scFv-Fc antibody, association and dissociation of 2F5 IgG measured; kinetics buffer; KD averaged"}, "[4]": {"target": "BM09 (su3H6 with T94hR, Y27hA)", "experiment": "BLI; protein A bio-assay (Octet QKe): Ab2/3H6 variants captured from concentrated culture supernatants on protein A biosensors, blocked with an unspecific scFv-Fc antibody, association and dissociation of 2F5 IgG measured; kinetics buffer; KD averaged"}, "[5]": {"target": "human anti HIV-1 monoclonal antibody 2F5 IgG (human)", "experiment": "BLI; streptavidin bio-assay (Octet QKe): biotinylated 2F5 IgG loaded on streptavidin biosensors, association and dissociation of purified Ab2/3H6 variants; kinetics buffer; KD averaged over different Ab2/3H6 concentrations"}}, "note": "Substitutions are numbered along the chain they refer to."}
{"binder": "B1", "values": [{"measurement": "Kd", "setting": "BM07 (su3H6 with T94hR)", "value": 0.17, "unit": "µM"}, {"measurement": "Kd", "setting": "[1]", "value": 0.022, "unit": "µM"}, {"measurement": "Kd", "setting": "[2]", "value": 0.095, "unit": "µM"}, {"measurement": "Kd", "setting": "[3]", "value": 0.021, "unit": "µM"}, {"measurement": "Kd", "setting": "[4]", "value": 39, "unit": "µM"}]}
{"binder": "B2", "values": [{"measurement": "Kd", "setting": "[5]", "value": 0.029, "unit": "µM"}]}
{"binder": "B3", "values": [{"measurement": "Kd", "setting": "[5]", "value": 0.035, "unit": "µM"}]}
{"binder": "B4", "values": [{"measurement": "Kd", "setting": "[5]", "value": 0.33, "unit": "µM"}]}
{"binder": "B5", "values": [{"measurement": "Kd", "setting": "[5]", "value": 8.3, "unit": "µM"}]}
{"binder": "B6", "values": [{"measurement": "Kd", "setting": "[5]", "value": 0.028, "unit": "µM"}]}
{"binder": "B7", "values": [{"measurement": "Kd", "setting": "[5]", "value": 0.059, "unit": "µM"}]}
